Key:
[1] = biological target: T1, AMP-dependent ACS (Mthe_1194) (Methanothrix thermoacetophila, UniProt A0B8F1); assay: coupled assay via auxiliary enzymes (myokinase, pyruvate kinase, lactate dehydrogenase), NADH […] nm; format: biochemical; conditions: read-out: 50% reduction of the reaction rate
T1 construct: gene acsA; full-length gene in pASK-IBA5, N-terminal Strep-tag II, E. coli BL21 (DE3) pLysS; approximately 75 kDa on SDS gel
T1 sequence (A0B8F1 1-659): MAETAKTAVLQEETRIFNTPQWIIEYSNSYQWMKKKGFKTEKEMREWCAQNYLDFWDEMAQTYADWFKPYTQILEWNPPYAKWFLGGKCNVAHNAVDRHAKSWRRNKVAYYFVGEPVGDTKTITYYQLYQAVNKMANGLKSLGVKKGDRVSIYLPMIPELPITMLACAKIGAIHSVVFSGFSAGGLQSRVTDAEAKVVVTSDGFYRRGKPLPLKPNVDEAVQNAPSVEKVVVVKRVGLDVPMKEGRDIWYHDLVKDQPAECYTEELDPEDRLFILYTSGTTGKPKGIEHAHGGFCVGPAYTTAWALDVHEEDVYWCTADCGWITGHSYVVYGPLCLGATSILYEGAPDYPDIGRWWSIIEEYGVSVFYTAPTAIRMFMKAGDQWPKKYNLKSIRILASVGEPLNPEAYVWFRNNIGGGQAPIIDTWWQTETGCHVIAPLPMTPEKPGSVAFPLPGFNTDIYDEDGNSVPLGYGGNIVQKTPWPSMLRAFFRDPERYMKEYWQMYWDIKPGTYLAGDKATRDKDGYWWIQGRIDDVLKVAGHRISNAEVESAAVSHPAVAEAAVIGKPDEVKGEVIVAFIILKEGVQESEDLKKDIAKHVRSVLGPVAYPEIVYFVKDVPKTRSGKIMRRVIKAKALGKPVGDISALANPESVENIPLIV

[2] = biological target: T1, AMP-dependent ACS (Mthe_1194); assay: discontinuous pyrophosphate detection (molybdate / Eikonogen, […] nm); format: biochemical; conditions: co-substrates ATP and CoA; 55°C
purified protein [3] = substrate: CC(=O)O; assay: purified protein; conditions: 50 mM HEPES pH 7.5, 5 mM MgCl2, 1 mM CoA, 2.5 mM ATP, 55°C
purified protein [4] = substrate: CC(C)(COP(=O)(O)OP(=O)(O)OC[C@H]1O[C@@H](n2cnc3c(N)ncnc32)[C@H](O)[C@@H]1OP(=O)(O)O)[C@@H](O)C(=O)NCCC(=O)NCCS; assay: purified protein; format: biochemical, Methanothrix thermoacetophila; conditions: co-substrates acetate and ATP, 55°C
purified protein [5] = substrate: Nc1ncnc2c1ncn2[C@@H]1O[C@H](COP(=O)(O)OP(=O)(O)OP(=O)(O)O)[C@@H](O)[C@H]1O; assay: purified protein; format: biochemical, Methanothrix thermoacetophila; conditions: co-substrates acetate and CoA, 55°C

Molecule `O=P(O)(O)OP(=O)(O)O` [PPi] has an IC50 [1] of about 250 µM.

In the case of `CCC(=O)O` [propionate], the “discontinuous pyrophosphate detection (molybdate / Eikonogen, 580 nm)” value [2] is reported as “A reaction was also observed with propionate”.

B1: AMP-dependent ACS (Mthe_1194) (Methanothrix thermoacetophila PT) (protein)
chain: MAETAKTAVLQEETRIFNTPQWIIEYSNSYQWMKKKGFKTEKEMREWCAQNYLDFWDEMAQTYADWFKPYTQILEWNPPYAKWFLGGKCNVAHNAVDRHAKSWRRNKVAYYFVGEPVGDTKTITYYQLYQAVNKMANGLKSLGVKKGDRVSIYLPMIPELPITMLACAKIGAIHSVVFSGFSAGGLQSRVTDAEAKVVVTSDGFYRRGKPLPLKPNVDEAVQNAPSVEKVVVVKRVGLDVPMKEGRDIWYHDLVKDQPAECYTEELDPEDRLFILYTSGTTGKPKGIEHAHGGFCVGPAYTTAWALDVHEEDVYWCTADCGWITGHSYVVYGPLCLGATSILYEGAPDYPDIGRWWSIIEEYGVSVFYTAPTAIRMFMKAGDQWPKKYNLKSIRILASVGEPLNPEAYVWFRNNIGGGQAPIIDTWWQTETGCHVIAPLPMTPEKPGSVAFPLPGFNTDIYDEDGNSVPLGYGGNIVQKTPWPSMLRAFFRDPERYMKEYWQMYWDIKPGTYLAGDKATRDKDGYWWIQGRIDDVLKVAGHRISNAEVESAAVSHPAVAEAAVIGKPDEVKGEVIVAFIILKEGVQESEDLKKDIAKHVRSVLGPVAYPEIVYFVKDVPKTRSGKIMRRVIKAKALGKPVGDISALANPESVENIPLIV
notes: full-length gene in pASK-IBA5, N-terminal Strep-tag II, E. coli BL21 (DE3) pLysS; approximately 75 kDa on SDS gel
B1 gave a Km (purified protein [3]) of 0.4 mM, a Km (purified protein [4]) of 14.5 µM and a Km (purified protein [5]) of 20 µM.
